The results in this text go back to article PMC5677532 (Structure (London, England : 1993), 2017).

Series [1] deals with the molecule itself. The experiment in a line: SEC. Background: SEC sorts molecules by how far they enter the pores of the column.
Series [2] concerns the molecule itself. The experiment in a line: SEC. The source holds these as a separate data set.
Series [3] concerns the molecule itself. Put plainly: native MS.
Series [4] deals with the molecule itself. Put plainly: native MS. The source holds these as a separate data set.
Series [5] deals with the molecule itself. The experiment in a line: SEC. The source holds these as a separate data set.
Series [6] concerns the molecule itself. The experiment in a line: SEC. The source holds these as a separate data set.

Values joined by “and” are separate entries in the source; they are usually repeats but may differ in a detail not shown here. Equal entries are not always repeated.

B1: Bsc4 S288C, N-terminally hexahistidine-tagged (natural protein, S. cerevisiae (strain S288C), UniProt P53841 1-131, looked up)
chain: MSIVLRKSNKKNKNCITSKFYTIHIIKISTPVFRAPIAIGESPYVEWSCLQVVFRKDMVTKKTTFAQLITRLNHFLCQALKRRDSKTYILCRTAVFGAMTPFSPRKSHINNKLPMQPRKKKIVIIYVVRFH
For the protein B1, in “SEC [1]”, the binding result is recorded as “binds”.

B2: Bsc4 EC1118, C-terminally hexahistidine-tagged (natural protein, S. cerevisiae (strain EC1118), UniProt P53841 2-121, looked up)
chain: SIVLRKSNKKNKNCITSKFYTIHIIKISTPVFRAPIAIGESPYVEWSCLQVVFRKDMVTKKTTFAQLITRLNHFLCQALKRRDSKTYILCRTAVFGAMTPFSPRKSHINNKLPMQPRKKK
For B2, the stoichiometry N – broadly, the number of molecules, sites or subunits per partner or assembly – in the series “SEC [2]” was 4; in the series “native MS [3]”, 2 and 6; in “native MS [4]”, 7 and 8; in “SEC [5]”, no less than 2.

B3: Bsc4 S288C, C-terminally hexahistidine-tagged (natural protein, S. cerevisiae (strain S288C), UniProt P53841 2-131, looked up)
chain: SIVLRKSNKKNKNCITSKFYTIHIIKISTPVFRAPIAIGESPYVEWSCLQVVFRKDMVTKKTTFAQLITRLNHFLCQALKRRDSKTYILCRTAVFGAMTPFSPRKSHINNKLPMQPRKKKIVIIYVVRFH
With B3, the “stoichiometry N” value in the series “SEC [6]” was 2; in the series “SEC [5]” it was no less than 2.
